# From patent US20210324080A1
# Tests used:
# [1] = target: human CTLA-4 (Y201V), full length, on transfected cells (human) (UniProt P16410); test: FACS, CHOK1-hCTLA-4 cells
# [2] = target: monkey CTLA-4, full length, on transfected HEK293 cells (monkey); test: FACS, monkey CTLA-4 expressing cells
# [3] = target: human CTLA-4 (Y201V), full length, on transfected cells (human) (UniProt P16410); test: FACS, human CTLA-4 expressing cells
# [4] = target: CTLA-4-hFc (immunogen A; hFc-labeled CTLA-4 extracellular domain protein) (human) (UniProt P16410); test: blocking assay, CTLA-4 protein, competitor B7.2
# Chain of CTLA-4-hFc (immunogen A; hFc-labeled CTLA-4 extracellular domain protein) (human) (P16410 36-161 limits assumed): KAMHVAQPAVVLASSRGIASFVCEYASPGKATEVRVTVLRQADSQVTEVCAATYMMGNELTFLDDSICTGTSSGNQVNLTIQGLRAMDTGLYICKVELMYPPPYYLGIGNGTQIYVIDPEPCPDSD
# [5] = target: CTLA-4-hFc (immunogen A; hFc-labeled CTLA-4 extracellular domain protein) (human) (UniProt P16410); test: blocking assay, CTLA-4 protein, competitor B7.1
# [6] = target: monkey CTLA-4, full length, on transfected HEK293 cells (monkey); test: FACS, 293F-cCTLA-4 cells
# [7] = target: CTLA-4-hFc (immunogen A; hFc-labeled CTLA-4 extracellular domain protein) (human) (UniProt P16410); test: ELISA, coated CTLA-4-hFc, competitor biotin-B7.1-hFc
# [8] = target: CTLA-4-hFc (immunogen A; hFc-labeled CTLA-4 extracellular domain protein) (human) (UniProt P16410); test: ELISA, coated CTLA-4-hFc, competitor biotin-B7.2-hFc
# Chain of human CTLA-4 (Y201V), full length, on transfected cells (human) (P16410 36-223 Y201V): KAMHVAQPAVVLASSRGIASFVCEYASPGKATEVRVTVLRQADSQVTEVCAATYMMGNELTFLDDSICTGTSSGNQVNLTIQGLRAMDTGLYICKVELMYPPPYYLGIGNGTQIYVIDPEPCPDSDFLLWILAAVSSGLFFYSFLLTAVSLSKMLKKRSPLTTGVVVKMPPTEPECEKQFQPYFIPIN
substance,measurement,setting,value
IgG control (human IgG) (antibody),MFI at 0.07 nM,[1],2
same,MFI at 0.67 nM,[1],2
same,MFI at 6.67 nM,[1],3
same,MFI at 66.67 nM,[1],8
same,MFI at 0.000128 nM,[2],3
same,MFI at 0.0128 nM,[2],3
same,MFI at 0.064 nM,[2],3
same,MFI at 0.32 nM,[2],2
same,MFI at 1.6 nM,[2],3
same,MFI at 8 nM,[2],3
same,MFI at 40 nM,[2],3
same,MFI at 200 nM,[2],5
same,MFI at 0.000128 nM,[3],3
same,MFI at 0.0128 nM,[3],3
same,MFI at 0.064 nM,[3],3
same,MFI at 0.32 nM,[3],3
same,MFI at 1.6 nM,[3],3
same,MFI at 8 nM,[3],3
same,MFI at 40 nM,[3],4
same,MFI at 200 nM,[3],6
hIgG1 (antibody),% Block at 0.000128 nM,[4],0%
same,% Block at 0.0128 nM,[4],12.3%
same,% Block at 0.064 nM,[4],12.9%
same,% Block at 0.32 nM,[4],15.5%
same,% Block at 1.6 nM,[4],4.1%
same,% Block at 8 nM,[4],4.9%
same,% Block at 40 nM,[4],18.3%
same,% Block at 200 nM,[4],12.4%
same,% Block at 0.000128 nM,[5],0%
same,% Block at 0.0128 nM,[5],-2%
same,% Block at 0.064 nM,[5],0.2%
same,% Block at 1.6 nM,[5],1.3%
same,% Block at 8 nM,[5],-0.1%
same,% Block at 40 nM,[5],1.6%
same,% Block at 200 nM,[5],-0.3%
same,MFI at 0.000128 nM,[6],2.7
same,MFI at 0.0128 nM,[6],2.6
same,MFI at 0.064 nM,[6],2.6
same,MFI at 0.32 nM,[6],2.4
same,MFI at 1.6 nM,[6],2.6
same,MFI at 8 nM,[6],2.9
same,MFI at 40 nM,[6],3.3
same,MFI at 200 nM,[6],4.9
hIgG4 (antibody),Inhibition rate (%) at 0.00091 nM,[7],0%
same,Inhibition rate (%) at 0.091 nM,[7],-36%
same,Inhibition rate (%) at 0.274 nM,[7],-41%
same,Inhibition rate (%) at 0.823 nM,[7],-37%
same,Inhibition rate (%) at 2.5 nM,[7],-39%
same,Inhibition rate (%) at 7.4 nM,[7],-40%
same,Inhibition rate (%) at 22.2 nM,[7],-41%
same,Inhibition rate (%) at 66.7 nM,[7],-10%
same,Inhibition rate (%) at 0.00091 nM,[8],0%
same,Inhibition rate (%) at 0.091 nM,[8],-8%
same,Inhibition rate (%) at 0.274 nM,[8],-10%
same,Inhibition rate (%) at 0.823 nM,[8],-1%
same,Inhibition rate (%) at 2.5 nM,[8],-7%
same,Inhibition rate (%) at 7.4 nM,[8],-12%
same,Inhibition rate (%) at 22.2 nM,[8],10%
same,Inhibition rate (%) at 66.7 nM,[8],61%
